Data as given in patent US20180057604A1 (Genentech, published 2018).
Positions count from the first letter of the chain named. In names and notes the source's numbering stands.

T1: cyno TfR extracellular domain (analogous construct to human TfR ecd) (cynomolgus monkey, UniProt Q5RDH6 87-760 (Pongo abelii entry))
T1 construct: also called cynoTfR ecd
T1 chain: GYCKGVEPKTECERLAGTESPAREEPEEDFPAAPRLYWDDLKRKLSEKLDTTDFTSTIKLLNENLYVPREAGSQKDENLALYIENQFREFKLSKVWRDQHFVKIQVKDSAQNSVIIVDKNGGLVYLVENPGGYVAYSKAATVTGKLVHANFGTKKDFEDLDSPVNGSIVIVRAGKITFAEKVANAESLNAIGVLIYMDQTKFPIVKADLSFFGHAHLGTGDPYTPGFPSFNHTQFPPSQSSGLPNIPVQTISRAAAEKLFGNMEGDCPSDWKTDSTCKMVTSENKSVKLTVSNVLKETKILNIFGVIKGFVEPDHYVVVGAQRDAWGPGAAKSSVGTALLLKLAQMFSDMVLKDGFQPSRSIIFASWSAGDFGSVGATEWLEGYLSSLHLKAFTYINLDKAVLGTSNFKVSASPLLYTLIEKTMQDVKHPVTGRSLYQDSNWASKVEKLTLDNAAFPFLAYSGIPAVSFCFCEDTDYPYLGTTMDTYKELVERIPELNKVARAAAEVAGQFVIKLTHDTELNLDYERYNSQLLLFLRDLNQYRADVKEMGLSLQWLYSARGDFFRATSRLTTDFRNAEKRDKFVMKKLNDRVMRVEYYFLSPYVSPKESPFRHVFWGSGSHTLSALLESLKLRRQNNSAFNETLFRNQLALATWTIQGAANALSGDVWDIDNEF

B1: hu7A4.v15.Fab (Fab, V domains shown)
VH: EVQLVQSGAEVKKPGASVKVSCKGSGYTFTDYAMHWVRQAPGQGLEWMGGISTYFGRTNYNQKFKGRVTMTVDTSISTAYMELSRLRSDDTAVYYCARGLSGNYVMDYWGQGTTVTVSS
VL: DIVMTQSPDSLAVSLGERATINCRASESVDSYGNSFMHWYQQKPGQPPKLLIYRASNLESGVPDRFSGSGSRTDFTLTISSLQAEDVAVYYCQQSNEAPPTFGQGTKLEIK
notes: Fab
B2: hu7A4.v15 IgG (antibody, V domains shown)
VH: B1 VH
VL: B1 VL
notes: Human IgG; also called humanized 7A4.v15
B3: Q90A (antibody, V domains shown)
VH: B1 VH
VL: B1 VL with Q94A
notes: also called 7A4.v15 Q90A (CDR-L3) IgG
B4: Q90A (Fab, V domains shown)
VH: B1 VH
VL: B1 VL with Q94A
notes: also called 7A4.v15 Q90A (CDR-L3) Fab
B5: N99A (antibody, V domains shown)
VH: B1 VH with N103A
VL: B1 VL
notes: also called 7A4.v15 N99A (CDR-H3) IgG; copies: 2 + 2

Legend:
[1] = biological target: T1, cyno TfR extracellular domain …; assay: SPR, KD on cyno TfR over KD on human TfR
Procedure: (§1) Antibody affinities were measured using surface plasmon resonance (“SPR”) (Biacore™, GE Healthcare). Anti-His antibody (Qiagen) was coupled onto four different flow cells of a BIACORE™ CM5 sensor chip (Biacore, Inc., Piscataway, N.J.) at between 6000 and 8000 RU. Immobilization was achieved by random coupling through amino groups using a protocol provided by the manufacturer. 10×HBS-P (Biacore, Inc., Piscataway, N.J.) was diluted in water and served as the dilution and running buffer. Purified human or cyno TfR was captured, followed by a 3-fold dilution series of IgG or Fab that was injected at a flow rate of 30 ml/min using the single cycle kinetics method. Affinity constants were determined using a simple 1:1 Langmuir binding model or using a steady state model when kₒₙ or koff was beyond the detection limit. The equilibrium dissociation constant (KD) was calculated as the ratio of association rate constant (kₒₙ) and dissociation rate constant (koff).
(§2) In both cases, the SPR experiments were performed as described above.

[2] = biological target: T2, human TfR extracellular domain with N-terminal His tag (human, UniProt P02786 89-760); assay: SPR, TfR captured by anti-His, Fab injected;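 note: single cycle kinetics with a Fab dilution series, fitted by a one-to-one Langmuir model or a steady state model, KD taken as koff over kon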
T2 construct: Biotinylated in some assays; also called huTfR; HuTfR
Target sequence in this assay (P02786 89-760 G142S): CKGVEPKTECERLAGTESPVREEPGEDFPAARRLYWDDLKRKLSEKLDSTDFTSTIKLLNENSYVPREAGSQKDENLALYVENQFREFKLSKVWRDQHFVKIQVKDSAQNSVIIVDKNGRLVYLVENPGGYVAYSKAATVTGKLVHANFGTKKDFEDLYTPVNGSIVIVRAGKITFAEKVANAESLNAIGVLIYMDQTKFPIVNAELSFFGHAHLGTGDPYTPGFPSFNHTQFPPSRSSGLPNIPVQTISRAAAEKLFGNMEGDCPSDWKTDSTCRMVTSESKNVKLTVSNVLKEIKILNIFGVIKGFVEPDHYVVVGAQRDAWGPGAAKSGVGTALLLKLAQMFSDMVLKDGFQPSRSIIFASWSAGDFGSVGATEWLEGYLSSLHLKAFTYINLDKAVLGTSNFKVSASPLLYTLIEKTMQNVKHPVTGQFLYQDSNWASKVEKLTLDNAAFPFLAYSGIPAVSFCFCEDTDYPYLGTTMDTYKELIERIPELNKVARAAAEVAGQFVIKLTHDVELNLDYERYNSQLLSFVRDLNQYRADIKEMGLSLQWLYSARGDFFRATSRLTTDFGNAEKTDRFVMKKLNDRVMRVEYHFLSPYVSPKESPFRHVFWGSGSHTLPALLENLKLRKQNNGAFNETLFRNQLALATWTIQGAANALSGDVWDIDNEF

[3] = biological target: T1, cyno TfR extracellular domain …; assay: SPR, TfR captured by anti-His, Fab injected;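 note: single cycle kinetics with a Fab dilution series, fitted by a one-to-one Langmuir model or a steady state model, KD taken as koff over kon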
[4] = biological target: T2, human TfR extracellular domain with …; assay: SPR, Fab
Procedure: as §1
(§3) These variants were screened as IgG by ELISA and SPR to identify positions important for binding to human and cyno TfR; the monovalent affinity of selected variants as Fab was also determined. […] Plates were washed with PBS/0.05% Tween 20 and blocked using Superblock blocking buffer in PBS (Thermo Scientific, Hudson, N.H.). Supernatants containing expressed IgG were diluted serially 1:5 and added to the plate for 1 h. […] Plates were washed with PBS/0.05% Tween 20 and 1:1000 diluted HRP-Goat-anti kappa (Southern Biotech) was added the plate and incubated for 1 h at room temperature. Plates were washed with PBS/0.05% Tween 20 and detected using TMB substrate (BioFX Laboratories, Owings Mills). Binding was also assessed by SPR, as described above.

[5] = biological target: T1, cyno TfR extracellular domain …; assay: SPR, Fab
Procedure: as §1, §3

[6] = biological target: T2, human TfR extracellular domain with …; assay: SPR, IgG;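 note: His-tagged TfR captured via immobilized anti-His antibody on a CM5 chip, antibody injected in 3-fold dilution series by single cycle kinetics, 1:1 Langmuir or steady-state fit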
Target sequence in this assay (P02786 89-760 G142S): as above
Procedure: as §1, §2

[7] = biological target: T1, cyno TfR extracellular domain …; assay: SPR, IgG;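 note: His-tagged TfR captured via immobilized anti-His antibody on a CM5 chip, antibody injected in 3-fold dilution series by single cycle kinetics, 1:1 Langmuir or steady-state fit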
Procedure: as §1, §2

[8] = biological target: T2, human TfR extracellular domain with …; assay: ELISA, immobilized huTfR, with and without 6.3 uM holo-Tf
Procedure: Plates were washed with PBS/0.05% Tween 20 and blocked using Superblock blocking buffer in PBS (Thermo Scientific, Hudson, N.H.). […] Plates were washed with PBS/0.05% Tween 20 and 1:1000 diluted HRP-Goat-anti human Fcγ (Jackson ImmunoResearch) was added to the plate and incubated for 1 h at room temperature. Plates were washed with PBS/0.05% Tween 20 and detected using TMB substrate (BioFX Laboratories, Owings Mills).

[9] = biological target: T2, human TfR extracellular domain with …; assay: SPR SCK 1:1 fit, IgG
Procedure: as §1, §3

[10] = biological target: T1, cyno TfR extracellular domain …; assay: SPR SCK 1:1 fit, IgG
Procedure: as §1, §3

[11] = biological target: T2, human TfR extracellular domain with …; assay: ELISA, IgG;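 note: ELISA of IgG-containing supernatants tested in 1:5 serial dilutions for 1 h, bound antibody read out with HRP anti-kappa antibody and TMB substrate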
Target sequence in this assay (P02786 89-760 G142S): as above
Procedure: (§4) Affinity variants were generated by making individual alanine substitutions in CDR-L3 or CDR-H3 using standard techniques. These variants were screened as IgG by ELISA and SPR to identify positions important for binding to human and cyno TfR; the monovalent affinity of selected variants as Fab was also determined. […] Plates were washed with PBS/0.05% Tween 20 and blocked using Superblock blocking buffer in PBS (Thermo Scientific, Hudson, N.H.). Supernatants containing expressed IgG were diluted serially 1:5 and added to the plate for 1 h. […] Plates were washed with PBS/0.05% Tween 20 and 1:1000 diluted HRP-Goat-anti kappa (Southern Biotech) was added the plate and incubated for 1 h at room temperature. Plates were washed with PBS/0.05% Tween 20 and detected using TMB substrate (BioFX Laboratories, Owings Mills).

[12] = biological target: T1, cyno TfR extracellular domain …; assay: ELISA, IgG;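 note: ELISA of IgG-containing supernatants tested in 1:5 serial dilutions for 1 h, bound antibody read out with HRP anti-kappa antibody and TMB substrate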
Procedure: as §4

[13] = biological target: T2, human TfR extracellular domain with …; assay: SPR steady state, IgG
Procedure: as §1, §3

[14] = biological target: T1, cyno TfR extracellular domain …; assay: SPR steady state, IgG
Procedure: as §1, §3

Binder	Cy/hu ratio [1]	koff [2] [s⁻¹]	kon [2] [M⁻¹ s⁻¹]	koff [3] [s⁻¹]	kon [3] [M⁻¹ s⁻¹]	Kd [4] [nM]	Kd [5] [nM]	Kd [6] [nM]	Kd [7] [nM]	EC50 (read off the curve) [8] [µg/mL]	Kd [9] [nM]	Kd [10] [nM]	EC50 [11] [µg/mL]	EC50 [12] [µg/mL]	Kd [13] [nM]	Kd [14] [nM]
B1	11	0.000317	910000	0.00162	378000	0.4	4.3	–	–	–	–	–	–	–	–	–
B2	–	–	–	–	–	–	–	0.561	7.8	~0.005	0.58	7.8	0.0148	0.0142	–	–
B3	–	–	–	–	–	–	–	–	–	–	16	570	0.0093	0.181	41	329
B4	–	–	–	–	–	130	760	–	–	–	–	–	–	–	–	–
B5	–	–	–	–	–	–	–	–	–	–	11	22	0.017	0.0822	19	77
